Consider 2 substances from US20140322225A1.

The target of test [1] is ADM (human or mouse, not stated for this control). The experiment in a line: cell-based or functional assay.
Test [2] addresses human recombinant adrenomedullin receptor (CRLR+RAMP3) (human).

The substance Non specific mouse IgG (antibody) gave a Maximal inhibition of ADM bioactivity (ADM-Bioassay) (%) in test [1] of 0%. On to “human adrenomedullin (hADM 1-52) (peptide)”, for which the EC50 (read off the curve), cAMP formation in test [2] was 1 nM.
